According to patent publication US20050008573A1, “Peptides conjugates, their derivatives with metal complexes and use thereof for magnetic resonance imaging (mri)” (priority 2001, published 2005):

Details: gadolinium complex

Q: Which relaxivity does the source give for “gadolinium complex of (DTPAGLU)4(Lys)2Lys-Gly-Vapreotide [Example 3]” here?
A: 15 mM⁻¹ s⁻¹
